B1: MT145K SOSIP.664 Env trimer (also MT145K Env pseudovirus): MT145K N160A (protein)
parent chain: MKVMGMKYYWWRNSCRSISIKLILIGWIASCFGEENWWVTVYYGVPVWREAKTTLFCASDAKSYSTEAHNIWATQACVPTDPTPQEVLLPNVTEEFNMWENYMVDQMQEDIISLWEQSLKPCVKLTPLCVTLTCNNPTNTSCTNSTDDRLGDMRNCSFNVTTELRDKKRQVYSLFYVEDITAIGNNSTYRLINCNTTAITQACPKTSFEPIPIHYCAPAGFALLKCNDIDYKGNETCKNVSTVHCTHGIKPVATTQLILNGSTADNQTVARIDPSENLAIIQLKDPVKITCRRPGNNTRGQIQIGPAMTFYNIENVVGDTRKAYCEINGTQWAKALNETKEVLRNILRKNISFMVPSGGDPEVTNHHFNCGGEFFYCNTSEIINITKINKTENMTIIPCRIRQIVNSWMRVGKGIFAPPIRGNITCTSNITGMLLEIHKNREDQGEDQDQNNTYVCLTGGNMKDIWRSELYKYKIVEIQPLGVAPTKSRRYAVEKQHHREKRALGLGALFLGFLGAAGSTMGAASVVLTVQARQLLTGIVQQQNNLLRAIEAQQHLLQLSVWGIKQLQARVLAVERYLRDQQLLGLWGCTGKTICPTAVRWNKTWGNISDYQVIWNNYTWQQWDREVNNYTGLIYTLLEEANTQQEKNEKELLELDSWANLWSWFDITNWLWYIKMFLIVVGGIIGLRICFAIGSLINRVRKGYSPLSLQTLIPANQGPDGLGETEKGGGENVRGRSIRLVSGFLPLVWEDLRNLLSFLYHQLRDCASLIWRLLEILGQYSLRGVQQIGTLLHQLRGTLQYWTTEIKNSAISLLDTTAIAVGEGTDRILEAITRLGRGILHIPRRIRQGLERALL

Assays:
[1] = target: MT145K SOSIP.664 trimer (SIVcpzPtt (chimpanzee SIV), isolate MT145); test: cryo-EM structure; unliganded MT145K trimer, global resolution ~4.1 Å
CAP256 UCA = test: BLI (Octet); details: parent: est. 0.19; read off a plot
[2] = target: CH01 inferred germline-reverted (iGL) antibody; test: BLI (Octet); details: parent: est. 0.12; read off a plot
[3] = pseudovirus neutralization, TZM-bl cells, ID50; details: glycan lost; control: MT145K virus

| Molecule | response [2] [nm] | also measured |
| --- | --- | --- |
| MT145K SOSIP.664 trimer (complex) | – | stoichiometry N [1]: 3 |
| MT145K SOSIP.664 trimer N160K | 0.04 | response (CAP256 UCA): 0.015 nm |
| MT145K SOSIP.664 trimer R166S | 0.1 | – |
| MT145K SOSIP.664 trimer K171E | 0.015 | – |
| B1 | – | other: neutralisation sensitivity [3]: decreases |

Reference: paper PMC6533203
